Data reported in patent publication US20260234276A1 (DOMAIN THERAPEUTICS, published 2026).
Numbering of substitutions follows the chain as printed. “And” between values parts separate entries of the source, which are not always exact repeats. Identical values can stand only once.

Experiments:
[1] = biological target: T1, streptavidin (UniProt P22629 37-163, limits assumed); experiment: ELISA, soluble Fab on streptavidin-coated control well without peptide
T1 construct: control well without peptide
Protocol: (§1) The wells of a microtiter plate were coated with 200 ng streptavidin protein in 100 μL Coating Buffer (0.1 M NaHCO₃, pH 8.6), and then incubated overnight at 4° C. For negative control, the wells were coated with PBS to determine non-specific binding. After shaking out the coating solution, the wells were washed three times with washing buffer (0.1% Tween 20-PBS). To prevent non-specific binding, 200 μL Blocking Buffer (3% BSA-PBS) was adding and incubated for 2 h at 37° C. After shaking out the blocking buffer, the wells were incubated with 50 ng biotinylated target peptide (SEQ ID NO: 420; see Example 10) in 100 μL Blocking Buffer for 1 h at 37° C. The control well was incubated with only 100 μL Blocking Buffer for 1 h at 37° C. After shaking out the biotinylated target peptide or buffer solution, the wells were washed 3 times with the washing buffer (0.1% Tween 20-PBS). Then 100 μL supernatant containing soluble Fab were added and incubated for 2 h at 37° C. Following three washes with washing buffer (0.1% Tween 20-PBS) for 3 times, 100 μL/well HRP conjugate of mouse anti-Flag tag mAb (Sigma A8592, 1:5000) diluted in Blocking Buffer were added and incubated for 1 h at 37° C. After washings, 3,3′,5,5′-tetramethylbenzidine (TMB) (Sigma) were added for 5 to 30 min at room temperature. The reaction was stopped by adding 50 μL/well of 1 M H₂SO₄.

[2] = biological target: T2, biotinylated CCR8 peptide (human, N-terminal biotin); experiment: ELISA, soluble Fab on biotinylated CCR8 peptide captured on streptavidin
T2 construct: first 34 residues of human CCR8 plus a C-terminal K; also called biotinylated target peptide
Protocol: as §1

[3] = biological target: T3, human CCR8 (human, UniProt P51685 1-355); experiment: cell-based or functional assay
[4] = biological target: T3, human CCR8; experiment: flow cytometry, hCCR8 transfected CHOK1 cells
Protocol: Briefly, 1·10⁵ cells per well in a 96 well plate were incubated with a dilution of unconjugated anti-CCR8 mAb at 10 μg/mL then diluted at 1/3.33, 4 dilution points (during 30 min at 4° C.). […] To determine EC50 value, 8 concentrations of anti-CCR8 mAb were tested. Unbound antibodies were washed away with PBS (Invitrogen by Thermofisher Scientific, Illkirch-Graffenstaden, France) supplemented by 2% Fetal Bovine Serum (Invitrogen by Thermofisher Scientific, Illkirch-Graffenstaden, France) and 2 mM EDTA (Invitrogen by Thermofisher Scientific, Illkirch-Graffenstaden, France). Subsequently, cells are centrifuged (5 min at 400 g) and bound antibody is detected with F(ab′)₂-Goat anti-Mouse IgG (H+L) Cross-Adsorbed Secondary Antibody, Alexa Fluor 488 (dilution 1/500) (Invitrogen by Thermofisher Scientific, Illkirch-Graffenstaden, France) or with F(ab′)₂-Goat anti-Human IgG Fc Secondary Antibody, PE (Invitrogen by Thermofisher Scientific, Illkirch-Graffenstaden, France) (dilution 1/1000) at 4° C. for 30 min. Detection reagent is washed away and cells are centrifuged (5 min at 400 g) and resuspended in 30 μL PBS. Bound detection antibody is quantified on a MacsQuant16 (Miltenyi, Gladbach, Germany) (B1 or B2 channel, 5000 events per acquisition).

[5] = biological target: T3, human CCR8; experiment: cell-based or functional assay; remark: listed apart in the source
[6] = biological target: T3, human CCR8; experiment: cell-based or functional assay; remark: listed apart in the source
[7] = biological target: CCR8 SNAP-tag (human, UniProt P51685 1-355, SNAP-tag labelled with Lumi4-Terbium); experiment: cell-based or functional assay

T1 sequence (P22629 37-163 limits assumed): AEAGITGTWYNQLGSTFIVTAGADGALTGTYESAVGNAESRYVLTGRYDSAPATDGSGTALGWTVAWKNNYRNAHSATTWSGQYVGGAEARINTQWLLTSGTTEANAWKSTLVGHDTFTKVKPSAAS

B1: 3-60 (Fab, V domains shown)
VH: QVQLVQSGGGVVQPGRSLRLSCAASGFTFSSYAMHWVRQAPGKGLEWVAVISYDGSNKYYADSVKGRFTISRDNAKNSLYLQMNSLRAEDTAVYYCAREQAARPTLGAFDIWGKGTTVTVSS
VL: DVVMTQSPLSLPVTPGEPASISCRSSQSLLHSNGNNYLAWYLQKPGQSPQLLMYLGSNRASGVPDRFSGSGSGTDFTLKISRVEAEDVGVYYCMQGIHLPLTFGGGTKVEIKR
notes: soluble Fab from phage display library huFabL-4, Flag tag
Optical Density [1]: 0.06 OD450
Optical Density [2]: 3.66 OD450

B2: 3-50 (antibody, V domains shown)
VH: EVQLQQSGPELVKPGASVKISCKASVYSFTGSYMHWVKQSHVKSLEWIGRINPYNGATSYNQNFKDKASLTVDKSSSTAYMELHSLTSEDSAVYYCATTLLRLLDYWGQGTTLTVSS
VL: DIVMTQAAFSNPVTLGTSASISCRSSKSLLHSNGITYLYWYLQKPGQSPQLLIYQMSNLASGVPDRFSSSGSGTDFTLRISRVEAEDVGVYYCAQNLELPWTFGGGTKLEIK
hCCL1 (100 nM) residual response, Protocol #2, mAb 0.08 µg/mL [3]: 97%
hCCL1 (100 nM) residual response, Protocol #2, mAb 0.4 µg/mL [3]: 96%
hCCL1 (100 nM) residual response, Protocol #2, mAb 10 µg/mL [3]: 84%
hCCL1 (100 nM) residual response, Protocol #3, mAb 0.05 µg/mL [3]: 96%
hCCL1 (100 nM) residual response, Protocol #3, mAb 0.5 µg/mL [3]: 81%
hCCL1 (100 nM) residual response, Protocol #3, mAb 5 µg/mL [3]: 73%
% positive cells [4]: 34.7%
MFI fold change to isotype ctrl [4]: 2.34 fold
Top plateau value (% of hCCL1 100 nM) with 5 µg/mL mAb, Protocol #3 [5]: 292%
IC50 (Gi2 BRET, pH 6.5) [6]: 0.162 µg/ml and 1.08 nM
IC50 (Gi2 BRET, pH 7.4) [6]: 0.152 µg/ml and 1.01 nM

B3: 3-59 (Fab, V domains shown)
VH: GVQLVQSGGGLVQPGGSLRLSCAASGFTFSSYSMNWVRQAPGKGLEWVAVISYDESNKYYADSVKGRFTISRDNSKNTLYLQMNSLRAEDTAVYYCAPGGSYHDYWGKGTLVTVSS
VL: EIVLTQSPLSLPVTLGQPASISCRSSQSLAHSNGNTYLNWFQQRPGQSPRRLIYKVSNRDSGVPDRFSGSGSGTDFTLKISRVEADDVGVYYCMQGSHWPPTFGQGTKVEIKR
notes: as for B1
Optical Density [1]: 0.06 OD450
Optical Density [2]: 1.4 OD450

B4: 3-65 (Fab, V domains shown)
VH: QVTLKESGGGVVQPGRSLRLSCAASEFTFRNYAMHWVRQAPGKGLEWVAVISYDGSNKYYADSVKGRFTISRDISKNMVFLQMNSLRADDTAVYYCARGTFLAYWGQGTLVTVSS
VL: B3 VL with A30V, N33D, N39S, D86E, S97I, W99L, P101L, Q105G, V109L
notes: as for B1
Optical Density [1]: 0.07 OD450
Optical Density [2]: 3.29 OD450

B5: 3-63 (Fab, V domains shown)
VH: QVQLQESGGGVVQPGRSLRLSCAASGFTFSSYGMHWVRQAPGKGLEWVAVISYDGSNKYYADSVKGRFTISRDNSKNTLYLQMNSLRAEDTAVYYCARDRPGGMDVWGKGTMVTVSS
VL: DVVMTQSPLSLPVTLGQPASISCRSSQSLVHSNGNTYLTWFQQRPGQSPRRLIYKVSNRDSGVPDRFSGSGSGTDFTLKISRVEAEDVGVYYCMQGTRWYTFGQGTKLEIKR
notes: as for B1
Optical Density [1]: 0.09 OD450
Optical Density [2]: 3.66 OD450

B6: 3-66 (Fab, V domains shown)
VH: QVQLVESGGGVVQPGRSLRLSCAASGFPFRTYGMHWVRQAPGKGLEWVSSISSSSSYIYYADSVKGRFTISRDNAKNSLELQMNSLRAEDTAVYYCARTTRGAFDIWGKGTMVTVSS
VL: LSSELTQDPAVSVALGQTVRITCQGDSLRSYYASWYQQKPGQAPLLVIYGRNNRPSGIPDRFSGSSSGNTASLTITGAQAEDEADYYCNSRDSSGVPFGTGTQLTVLS
notes: as for B1
Optical Density [1]: 0.1 OD450
Optical Density [2]: 2.56 OD450

B7: Ref #4 (antibody, human IgG1, V domains shown)
VH: EVQLVESGGGLVQPGGSLKLSCAASGFTFNTYAMNWVRQASGKGLEWVARIRSKANNYATYYADSVKDRFTISRDDSKNTLYLQMNNLKTEDTAVYYCVRDRSRGEDYAMDYWGQGTLVTVSS
VL: DIVMTQSPLSLPVTPGEPASISCRSSKSLLHSNANTYLYWFLQKPGQSPQLLIYRMSNLASGVPDRFSGSGSGTAFTLKISRVEAEDVGVYYCMQHLEYPFTFGQGTKLEIK
% of internalization at 1 µg/ml mAb (HTRF) [7]: 95%
% of internalization at 10 µg/ml mAb (HTRF) [7]: 103%

B8: 3-61 (Fab, V domains shown)
VH: QVQLVESGAEVKKPGASVKVSCKASGYTFTSYYMHWVRQAPGQGLEWMGIINPSGGGTKYAQSLQGRVTMTRDTSTSTVYMELNSLTSEDTAVYYCARGGTPSGLDYWGKGTLVTVSS
VL: DIQMTQSPSSLSASVGDRVTITCRASQGISNYLAWYQQKPGKVPKLLIYAASTLQSGVPSRFSGSGSGTDFTLTISSLQPEDVATYYCQKYNSAPLTFGGGTKVEIKR
notes: as for B1
Optical Density [1]: 0.06 OD450
Optical Density [2]: 2.43 OD450

B9: Ref #3 (antibody, human IgG1, V domains shown)
VH: QVQLVQSGAEVKKPGASVKVSCKASGYTFTSYYMHWVRQAPGQGLEWMGIINPSGGSTSYAQKFQGRVTMTRDTSTSTVYMELSSLRSEDTAVYYCARAVRNRFRFDYWGQGTLVTVSS
VL: QSALTQPASVSGSPGQSITISCTGTSSDVGSYNLVSWYQQHPGKAPKLMIYEVSKRPSGVSNRFSGSKSGNTASLTISGLQAEDEADYYCSSYAGSSTFVVFGGGTKLTVL
% of internalization at 1 µg/ml mAb (HTRF) [7]: 100%
% of internalization at 10 µg/ml mAb (HTRF) [7]: 90%

B10: 3-64 (Fab, V domains shown)
VH: QLQLQESGGGLVQPGGSLRLSCAASGFTFSSYAMSWVRQAPGKGLEWVSAISGSGGSTYYADSVKGRFTISRDNSKNTLYLQMNSLRAEDTAVYYCASGHSSHAFEIWGQGTTVTVSS
VL: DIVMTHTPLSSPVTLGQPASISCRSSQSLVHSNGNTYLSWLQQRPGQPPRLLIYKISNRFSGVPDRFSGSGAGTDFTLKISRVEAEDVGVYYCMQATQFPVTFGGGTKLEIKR
notes: as for B1
Optical Density [1]: 0.07 OD450
Optical Density [2]: 3.64 OD450

B11: 3-62 (Fab, V domains shown)
VH: QVQLQQSGPGLVKPSQTLSLTCAISGDSVSNNSAAWNWIRQSPSRGLEWLGRTYYRSKWYTDYAVSVKSRITINPDTSKNQFSLQLNSVTPEDTAVYYCARASGYSSGQVEYWGKGTLVTVSS
VL: QSVLTQPPSVSAAPGQKVTISCSGSSSNIGNNYISWYQQVPGTAPKLLIYGNNKRPSGIPARFSGSKSGTSATLDITGLQIGDEADYYCGTWESSLRAVVFGGGTKLTVLG
notes: as for B1
Optical Density [1]: 0.07 OD450
Optical Density [2]: 3.6 OD450
